Experiment: yeast display, Sf9 membrane polyspecificity reagent, FACS + sequencing; frameworks hold sequencing errors
Outline: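 A synthetic nanobody library was expressed on Saccharomyces cerevisiae BJ5465 by galactose induction for 36–48 hours. The library was stained for 1 hour at 4 °C with 10% biotinylated, detergent-solubilized Sf9 membrane reagent and enriched with streptavidin microbeads before FACS. Low and high (top ~1%) gates were set on anti-HA fluorescence for expression and streptavidin fluorescence for reagent binding, and each polyreactivity label reflects the gate of origin.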

Sequence: QVQLVESGGGLVQAGGSLRLSCAASGFIFTANAMGWYRQAPGKEMELVAAISRSGGRTYYADSVKGRFTISRDNAKNTVYLQMNSLKPEDTAVYYCAAPYRSYDWYDYWGQGTQVTVSS
- polyreactivity (PSR sort gate): high polyreactivity

Sequence: PVQLVESGGGLVQAGGSLRLTCAASGRIFTGYAMGWYRQAPGKERELVAAISRGGSTNYADSVKGRFTISRDNEKNTVYLLMNSLKPEDTAFYYCAAGFDWDRGDYWGQGTQVTVSS
- polyreactivity (PSR sort gate): low polyreactivity

Sequence: QVQLVESGGGLVQAGGSLRLSCAASGLIFGVNAMGWYRQAPGKERELVAGISGSTGSTYYADSVKGRFTISRDNAKNTLYVQMNSLKPEDSAVYYCAKRSRRRGYRYDYWGQGTQVTVSS
- polyreactivity (PSR sort gate): high polyreactivity

Sequence: QVQLVESGGGLVQAGGSLRLSGAASGSIFYSNARGWYRQAPGKERELVAAITVGGGRTYYADSVKGRFTISRDNAKNTVYLQMNSLKPEDTAVYYCAADSHASTYDYWGQGTQVTVSS
- polyreactivity (PSR sort gate): low polyreactivity

Sequence: QVQLVESGGGLVQARGSLRLSCAASGSIFNRNAMGWYRQAPGKERELVAAISRRGGSTYYADSVKGRFTISRDNEKNSVYLQMNSLKPEDTAVYYCAAATRKTEYDYWGQGTEVTVSS
- polyreactivity (PSR sort gate): low polyreactivity

Sequence: QVQLVESGGGLVQAGGSLRLSCAASGSIFVFNAMGWYRQAPGKERELVAAITSGGRTYYADSVKGRFTISRDNAKNTVYLQMNSLKPEDTAVYYCAAEFWFFAGWAYEYWGQGTQVTVSS
- polyreactivity (PSR sort gate): high polyreactivity

Sequence: QVQLVESGGGLVQAGGSLRLSFAASGGTFYTYVMGWYRQAPGKERELVAAISGSGGSTYYADSVKGRFTISRDNAKNTVYLQMNSLKPEDTAVYYCAAEGFVTWYRQGQVYYWGQGTQVTVSS
- polyreactivity (PSR sort gate): high polyreactivity

Sequence: QVQLVESGGGLVQAGGSLRLSCAASGFTFRWYAMGWYRQAPGKERELVAAISSGGGSTYYADSVKGRFTISRDNAKNTVYLQMNSLKPEDTAVYYCNARIQYFKYRGYEYWGQGTQVTVSS
- polyreactivity (PSR sort gate): high polyreactivity

Sequence: QVQLVESGGGLVQAGGSLRLSCAASGSTFVRYVMGWYRQAPGKERELVAAIRYRGGSTYYADSVKGRFTISRDNAKNTVYLQMNSLKPEDTAVYYCATDWRRYTKQYGYWGQGTQVSVSS
- polyreactivity (PSR sort gate): high polyreactivity

Sequence: QVQLVESGGGLVQAGGSLRLSCAASGFIFKYYAMGWYRQAPGKERELVAAIRSGGGTNYADSVKGRFTISRDNAKNTVYLQMNSLKPEDTAVYYCAARGYTSYKHFGYWGQGTQVTVSS
- polyreactivity (PSR sort gate): high polyreactivity

Sequence: QVPLVESGGGLVQAGGSLRLSCAASGRTFGRYAMGWYRQTHGKERELVASISWRGGSTYYADSVKGRFTISRDYAKNTVFLQMNSLKPEDTAVYYCAVRFLTYWHGSYWYDYWGQGTQVTVSS
- polyreactivity (PSR sort gate): high polyreactivity

Sequence: QVQLVESCGGLIQAGGSLRLSCAASGSTFPYYAMGWYRQAPGKEREFVAAIRFSGSSTYYADSVKGRFTISRDNAMNTVFLQMNRLKPEDTAVYYCATDYWLPSYSYDYWGQGTQVTVSS
- polyreactivity (PSR sort gate): low polyreactivity

Sequence: QVQLVESGGGLVQAGGSLRLSCAASGRIFYAYAMGWYRQAPGKERELVATITYGGGSTYYADSVKGRFTISRDNAKNTVDLQMNSLKPEATAVYYCAADRTGSTLYTIRYYYWGQGTQVTVSS
- polyreactivity (PSR sort gate): low polyreactivity

Sequence: QVQLVESGGGLVQAGGSLRLSCAASGRIFHYNAMGSYRQAPVKERELVAAISTGGSTNYADSVKGRFTISRDNAKNTVYLQMNSLKPEDTAVYYCAAGPDPLGEDYWGQGTQVTVSS
- polyreactivity (PSR sort gate): low polyreactivity

Sequence: QVQLVESGGGLVQAGGSLRLSCAASGSILYFNAMGWYRQAPGKERELVAAISRTGSRTYYADSVKGRFTISRDNAKNTVYLQMNSLKPEDTAVFYCAAYNGITSHLRFDYWGQGTQVTVSS
- polyreactivity (PSR sort gate): high polyreactivity

Sequence: QVQLVESGGGLVQAGGSLRLSCAASGFTFYHNAMGWYRQAPGKERELVATITARGGRTYYADSVKGRFTISRDNAKNTVYLQMNSLKPVDTAVYYCNVKASRGYTYEYDYWGQGTQVTVSS
- polyreactivity (PSR sort gate): high polyreactivity

Sequence: QVQLVESGGGLVQAGGSLGLSCAASGRTFGFYAMGWYRQATGKQRELVAAITSTGGSTYYADSVKGRFTISRDNAKNTVYLQMNSLKPEDNAVYYCAADSGTKRYYYWGQGTPVTVSS
- polyreactivity (PSR sort gate): high polyreactivity

Reference: the nanobody polyreactivity screen of Harvey et al. (2022)
